This passage reports Kd results from article PMC3969726.

Experiment [1] concerns the target Bfr ArdA (ArdA protein from Bacteroides fragilis NCTC 9343, Orf BF1222) (Bacteroides fragilis NCTC 9343). Nature of the experiment: SEC; Biosep-SEC-S3000 column; 20 mM Tris-HCl, 20 mM MES, 200 mM NaCl, 10 mM MgCl2, 0.1 mM EDTA, 7 mM 2-mercaptoethanol, pH 6.5; 25 °C; apparent molecular mass against injected monomer concentration, fitted to a monomer-dimer equilibrium; apparent constants; dimer to monomers.

Experiment [2] concerns the target Ocr (Escherichia phage T7) (UniProt P03775). To be noted: cited from earlier work.
The target of experiment [3] is Mu50 ArdA (ArdA protein from Staphylococcus aureus Mu50, Orf SAV0405) (Staphylococcus aureus Mu50). Nature of the experiment: SEC; Biosep-SEC-S3000 column; 20 mM Tris-HCl, 20 mM MES, 200 mM NaCl, 10 mM MgCl2, 0.1 mM EDTA, 7 mM 2-mercaptoethanol, pH 6.5; 25 °C; apparent molecular mass against injected monomer concentration, fitted to a monomer-dimer equilibrium; apparent constants; dimer to monomers. (In general: In gel filtration, larger molecules generally elute earlier.)

Experiment [4] addresses Orf18 ArdA protein expressed by the conjugative transposon Tn916 (conjugative transposon Tn916). The description is as above.

For “Bfr ArdA (ArdA protein from Bacteroides fragilis NCTC 9343, Orf BF1222) (natural protein)”, in experiment [1], the Kd came to 360 nM.

With EcoKI MTase (from UniProt P08957), in experiment [2], the Kd was 0.05 nM.

As for “Mu50 ArdA (ArdA protein from Staphylococcus aureus Mu50, Orf SAV0405) (natural protein)”, the Kd in experiment [3] turned out to be 3180 nM.

Regarding “Orf18 ArdA protein expressed by the conjugative transposon Tn916 (natural protein)”, in experiment [4], the Kd was determined as 2200 nM.
